Tests used:
[1] = target: T1, Cyto13-vir (rabies virus (CVS-NIV RABV strain)); test: NMR titration (rounded value in the text)
[2] = target: T1, Cyto13-vir; test: NMR titration, 15N-labeled PTPN4-PDZ with unlabeled peptide
[3] = target: DARL-13 (rabies virus (vampire bat RABV strain)); test: as above

B1: PTPN4-PDZ (residues G499-N604) (other)
chain: GSPEKPTPNGGIPHDNLVLIRMKPDENGRFGFNVKGGYDQKMPVIVSRVAPGTPADLCVPRLNEGDQVVLINGRDIAEHTHDQVVLFIKASCERHSGELMLLVRPN
notes: range 500-604; also called PDZ of PTPN4; PTPN4 PDZ domain
- Kd [1]: 560 µM
- Kd [2]: 568 µM
- Kd [3]: 1280 µM
